This assay has as its target SARS-COV-2 RBD extracellular domain expressed with a C-terminal mouse IgG2a (SARS-COV-2 RBD-mFc) (SARS-CoV-2). As to the kind of experiment: SPR, captured mAb, RBD-mFc in solution, 37 C. (In general: In SPR one partner is held on a chip, and binding of the other changes the refractive index at the surface.)

Positions count from the first letter of the chain named.

B1: mAb10966 (antibody, V domains shown)
VH: EVQLVESGGGLVQPGGSLRLSCAASGLTVSSNYMSWVRQAPGKGLEWVSVIYSGGSTFYADSVKGRFTISRDNSKNTLYLQMNSLRPEDTAVYYCAREGRIAATGYGMDVWGQGTTVTVSS
VL: not shown
In general, Kd refers to the constant that tells how readily two partners part at equilibrium. By t½ is commonly meant the time in which the quantity being followed falls by half. Read a low t½ as fast loss. In the case of B1, the Kd worked out at 0.0405 nM and the “t½” value came to 116 min.

B2: mAb10936 (antibody, V domains shown)
VH: QVQLVESGGGVVQPGRSLRLSCAASGFTFRNYGMHWVRQAPGKGLEWVSVIWYDGSNRYYADSVKGRFTISRDTSKNTLYLQMNSLRAEDTAVYYCARDPPITGTTGGDAFDIWGQGTMVTVSS
VL: not shown
What is called koff is the first-order rate constant of dissociation. The term kon denotes the second-order rate constant of association. Read a low kon as slow association. For the molecule B2, binding was characterised by a dissociation constant (Kd) of 0.0177 nM, the dissociation rate constant (koff) was 6.75e-05 s⁻¹, the kon is 3.81e+06 M⁻¹ s⁻¹ and the “t½” value was 171 min.

B3: mAb10964 (antibody, V domains shown)
VH: QVQLQESGPGLVKPSETLSLTCTVSGGSINNYYWIWIRQPPGKGLEWIGYIYHSGSTNYNPSLKSRVTISVDTSKNQFSLKVSSVTAADTAVYYCANMVRGVYEDDYWGQGTLVTVSS
VL: DIQMTQSPSSLSASVGDRVTITCRASQSISNYLNWYQQKPGKAPKLLIFAASSLRSGVPSRFSGSGSGTDFTLTISSLHPEDFATYYCQQNYNTPLTFGPGTKVDIKR
Turning to B3, the “t½” value worked out at 91.7 min.

B4: mAb10965 (antibody, V domains shown)
VH: EVQLVESGGGLIQPGGSLRLSCAASVFTVSYNYMSWVRQAPGKGLEWVSVIYSGGSTYYADSVKGRFTISRDNSKNTLYLQMNSLRAEDTAVYYCARALPGWGGSFEYFDYWGQGTLVTVSS
VL: not shown
In the case of B4, the Kd is 0.237 nM and the “t½” value turned out to be 34.2 min.

B5: mAb10934 (antibody, V domains shown)
VH: not shown
VL: DIQMTQSPSSLSASVGDRVTITCQASQDIWNYINWYQQKPGKAPKLLIYDASNLKTGVPSRFSGSGSGTDFTFTISSLQPEDIATYYCQQHDDLPPTFGQGTKVEIKR
For B5, the Kd came to 0.0216 nM and the “t½” value turned out to be 39.4 min.

B6: mAb10954 (antibody, V domains shown)
VH: EVQLVESGGGLVQPGGSLRLSCAASGITVSSNYMSWVRQAPGKGLEWVSLIYSGGSTYYADSVKGRFTISRDNSKNTLYLQMNSLRVEDTAVYYCARDHGMAAAGYNYWGQGTLVTVSS
VL: B5 VL with W30N, N31K, I33L, K55E, S76N, I83F, Y87F, H91Y, D93N, T97A
B6 returned a Kd of 0.0369 nM.

B7: mAb10955 (antibody, V domains shown)
VH: EVQLVESGGGLVQPGGSLRVSCAASGFTVSRNYMSWVRQAPGKGLEWVSVIYSGGSTFYADSVKGRFTISRDNSKNTLYLQMNSLRAEDTAIYYCARYIPRFDPWGQGTLVTVSS
VL: B5 VL with W30S, I33L, Y36F, K42R, K55E, H91Y, D93N, P96I, K103R, V104L
In the case of B7, the Kd is 0.202 nM and the “t½” value came out at 29.8 min.

B8: mAb10938 (antibody, V domains shown)
VH: EVQLVESGGGLVQPGGSLRLSCAVSGFTVSSNYMSWVRQAPGKGLEWVSLIYSGGSTFYADSVKGRFTISRHNSKNTLYLQMNSLRAEDTAVYYCAREGGYSYDYNYWGQGTLVTVSS
VL: B5 VL with W30R, I33L, K55E, S65I, H91Y, D93N, P96I, K103R, V104L
As for B8, the Kd amounted to 0.173 nM and the “t½” value is 176 min.

B9: mAb10967 (antibody, V domains shown)
VH: EVQLVESGGGLVQPGGSLRLSCAASGFTVSSNYMSWVRQAPGKGLEWVSVIYPGGSTFYADSVKGRFTISRDNSKNTLYLQMNSLRAEDTAVYYCARDQRDFAWGQGTLVTVSS
VL: B5 VL with W30S, I33L, K55E, S77G, H91Y, D93N, K103R, V104L
B9: binding was characterised by a dissociation constant (Kd) of 0.0229 nM and the “t½” value was determined as 347 min.

B10: mAb10935 (antibody, V domains shown)
VH: EVQLVESGGGLVQPGGSLRLSCAASGFTVSSNYMSWVRQAPGKGLEWVSLIYSGGSTYYADSVKGRFTISRHNSKNTLYLQMNSLRSEDTAVYYCARVPLGDYYYGMDVWGQGTTVTVSS
VL: B5 VL with W30N, N31K, I33L, K55E, H91S, D93N, P96L, Q100G
As for B10, the Kd came out at 0.0869 nM, the koff was 0.000494 s⁻¹, the association rate constant (kon) is 5.68e+06 M⁻¹ s⁻¹ and the “t½” value stood at 23.4 min.

B11: mAb10969 (antibody, V domains shown)
VH: QVQLVESGGGVVQPGRSLRLSCAASGFTFSSYAMHWVRQAPGKGLEWVAVISYDGSNKYYADSVKGRFTISRDNSKNTLYLQMNSLRAEDTAVYYCARDGRTITMVRGVIDDAFDIWGQGTMVTVSS
VL: not shown
Take B11: the affinity, expressed as Kd, was 0.174 nM and the “t½” value amounted to 81.9 min.

B12: mAb10957 (antibody, V domains shown)
VH: EVQLVESGGGLVQPGGSLRLSCAASGVTVSSNYMSWVRQAPGKGLEWVSVIYSGGSTFYADSVKGRFTISRDNSKNTLFLQMNSLRIEDTAVYYCARDLGPYGMDVWGQGTTVTVSS
VL: DIQLTQSPSFLSASVGDRVTITCRASQGISSYLAWYQQKPGKAPKLLIYAASTLQSGVPSRFSGSGSGTQFILTISSLQPEDFATYYCQQLNSYPGFTFGPGTKVDIKR
For B12, the Kd stood at 0.0463 nM and the “t½” value is 161 min.

B13: mAb10971 (antibody, V domains shown)
VH: B12 VH with V12I, A60S, T68S, F79Y, I87A, G100Y, P101Y
VL: B12 VL with S31T, Q70E, I72T, N92D, F97L, P101G, D106E
For B13, binding was put at a Kd of 0.0397 nM, the koff amounted to 9.41e-05 s⁻¹, the kon was found to be 2.37e+06 M⁻¹ s⁻¹ and the “t½” value is 123 min.

B14: mAb10939 (antibody, V domains shown)
VH: EVQLVESGGGLVQPGGSLRLSCAASGLTVSSNYMNWVRQVPGKGLEWVSVIYSGGSKFYVDSVKGRFTISRHNSKNTLYLQMNSLRPEDTAVYYCTRDAQYYGMDVWGQGTTVTVSS
VL: DIQMTQSPSSLSASVGDRVTITCRASQSISTYLHWYQQKPGEAPKLLIYAASSLQSGVPSRFSGSGSGTDFTLTISSLQPEDFATYYCQQSYSTPPEIFGQGTKLEIKR
B14: the Kd was 0.155 nM, the koff came out at 0.000165 s⁻¹, the kon came out at 1.06e+06 M⁻¹ s⁻¹ and the “t½” value is 70 min.

B15: mAb10956 (antibody, V domains shown)
VH: B12 VH with V27L, F79Y, I87A, G100I, P101K
VL: not shown
As to B15, the Kd was found to be 0.158 nM and the “t½” value was found to be 33.8 min.

B16: mAb10937 (antibody, V domains shown)
VH: QITLKESGPTLVKPTQTLTLTCTFSGFSLSTNVVGVGWIRQPPGKALEWLALIYWNDDKRYSPSLKSRLTITKDTSKNQVVLTMTNMDPVDTATYYCAHGPTGDYFDYWGQGTLVTVSS
VL: not shown
For the molecule B16, the equilibrium dissociation constant (Kd) was determined as 0.0129 nM, the koff was 5.74e-05 s⁻¹, the kon is 4.47e+06 M⁻¹ s⁻¹ and the “t½” value turned out to be 201 min.

Source of the values: US20240043504A1 (published 2024).
